What was measured:
[1] = target: T1, ribosomal protein L10 from Methanococcus vannielii (Methanococcus vannielii, UniProt P15826 1-336); experiment: SEC
T1 sequence (looked up): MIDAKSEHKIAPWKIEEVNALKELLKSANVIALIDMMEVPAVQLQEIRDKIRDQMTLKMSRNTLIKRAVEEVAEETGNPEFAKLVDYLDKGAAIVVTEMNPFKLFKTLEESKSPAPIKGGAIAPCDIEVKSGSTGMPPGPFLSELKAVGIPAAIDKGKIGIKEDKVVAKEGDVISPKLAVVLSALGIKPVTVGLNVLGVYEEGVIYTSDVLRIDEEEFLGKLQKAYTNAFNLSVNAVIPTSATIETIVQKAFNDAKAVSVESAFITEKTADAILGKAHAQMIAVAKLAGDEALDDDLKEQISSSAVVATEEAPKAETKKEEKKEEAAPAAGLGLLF

[2] = target: T1, ribosomal protein L10 from …; experiment: native gel or EMSA
[3] = target: T2, ribosomal protein L10 from Sulfolobus solfataricus (Sulfolobus solfataricus, UniProt P96039 1-338); experiment: SEC
T2 sequence (looked up): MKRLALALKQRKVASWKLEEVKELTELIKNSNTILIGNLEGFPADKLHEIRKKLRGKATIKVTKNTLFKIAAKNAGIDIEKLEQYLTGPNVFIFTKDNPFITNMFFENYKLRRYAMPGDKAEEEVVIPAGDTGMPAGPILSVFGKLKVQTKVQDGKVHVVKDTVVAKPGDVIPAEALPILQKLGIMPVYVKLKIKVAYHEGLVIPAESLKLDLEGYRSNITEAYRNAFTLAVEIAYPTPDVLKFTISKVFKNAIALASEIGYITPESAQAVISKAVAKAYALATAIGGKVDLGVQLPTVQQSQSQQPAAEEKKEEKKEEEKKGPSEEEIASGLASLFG

[4] = target: T2, ribosomal protein L10 from Sulfolobus …; experiment: native gel or EMSA
[5] = target: T3, ribosomal protein L10 from Thermus thermophilus (Thermus thermophilus, UniProt Q8VVE3 1-173); experiment: SEC
T3 sequence (looked up): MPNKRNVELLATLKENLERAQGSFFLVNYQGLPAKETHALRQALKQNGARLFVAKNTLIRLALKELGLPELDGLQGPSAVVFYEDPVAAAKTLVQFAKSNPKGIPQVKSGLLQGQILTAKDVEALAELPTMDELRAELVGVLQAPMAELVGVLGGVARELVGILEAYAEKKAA

[6] = target: T4, ribosomal protein L10 from Methanococcus thermolithotrophicus (Methanococcus thermolithotrophicus, UniProt O52705 1-338); experiment: SEC
T4 sequence (looked up): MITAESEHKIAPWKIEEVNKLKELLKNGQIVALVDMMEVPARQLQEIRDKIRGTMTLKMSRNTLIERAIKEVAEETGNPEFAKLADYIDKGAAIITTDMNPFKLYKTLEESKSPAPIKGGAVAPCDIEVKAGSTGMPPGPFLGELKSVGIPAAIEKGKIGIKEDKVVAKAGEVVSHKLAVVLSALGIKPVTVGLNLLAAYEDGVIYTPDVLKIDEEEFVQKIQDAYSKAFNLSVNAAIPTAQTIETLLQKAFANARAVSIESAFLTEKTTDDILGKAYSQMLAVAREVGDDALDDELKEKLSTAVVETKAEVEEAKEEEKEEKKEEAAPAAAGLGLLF

[7] = target: T4, ribosomal protein L10 from …; experiment: native gel or EMSA
[8] = target: T5, ribosomal protein L10 from Methanococcus jannaschii (Methanococcus jannaschii, UniProt P54049 1-338); experiment: native gel or EMSA
T5 sequence (looked up): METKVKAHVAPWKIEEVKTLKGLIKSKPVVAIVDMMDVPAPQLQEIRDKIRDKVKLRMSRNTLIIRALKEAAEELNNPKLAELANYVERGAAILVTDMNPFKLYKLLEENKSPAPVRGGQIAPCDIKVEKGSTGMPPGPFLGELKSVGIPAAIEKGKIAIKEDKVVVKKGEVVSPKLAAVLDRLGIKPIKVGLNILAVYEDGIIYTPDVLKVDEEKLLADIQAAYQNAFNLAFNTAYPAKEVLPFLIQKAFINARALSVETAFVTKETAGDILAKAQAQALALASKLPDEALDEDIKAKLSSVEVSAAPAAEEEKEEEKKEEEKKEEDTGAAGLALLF

B1: ribosomal protein L12 from Methanococcus vannielii (natural protein, UniProt P10623 1-99, looked up)
chain: MEYIYAALLLNSANKEVTEEAVKAVLVAGGIEANDARVKALVAALEGVDIAEAIAKAAIAPVAAAAPVAAAAAPAEVKKEEKKEDTTAAAAAGLGALFM
stoichiometry N [1]: 4 L12 per L10
stoichiometry N [2]: ~4 L12 per L10

B2: ribosomal protein L12 from Sulfolobus solfataricus (natural protein, UniProt P96040 1-106, looked up)
chain: MEYIYASLLLHSAKKEISEDALKNVLTAAGISVDEVRLKAVVAALKEVNIDEVLKNAAAMPVAVAAQPQATQAQPAAEEKKEEKKEEEKKGPSEEEIASGLASLFG
stoichiometry N [3]: 4 L12 per L10
stoichiometry N [4]: ~4 L12 per L10

B3: ribosomal protein L12 from Thermus thermophilus (natural protein, UniProt Q8VVE2 1-125, looked up)
chain: MALDIERIKEELSQATVLELKQLIDALKEAWGVTAAAPVAVAAAPAAGAAAAPAEEKTEFDVILKEAGAKKLEVIKELRAITGLGLKEAKDLAEKGGPVKEGVSKQEAEEIKKKLEAVGAVVELK
stoichiometry N [5]: 6 L12 per L10

B4: ribosomal protein L12 from Methanococcus thermolithotrophicus (natural protein, UniProt O52706 1-101, looked up)
chain: MEYIYASLLLHSAGKEITEDAVKAVLSAAGVEVEDARVKALVAALEGVDIEEAIEKAAMPVAAAAAPAAAPAEEPKEEKKEEKKEEDTTAAAAAGLGALFG
stoichiometry N [6]: 4 L12 per L10
stoichiometry N [7]: ~4 L12 per L10

B5: ribosomal protein L12 from Methanococcus jannaschii (natural protein, UniProt P54048 1-102, looked up)
chain: MEYIYAALLLHSAGKEITEDAIKAVLSAAGVEVDDARVKALVAGLEGVDIEEAIANAAMPVAAAPAAAAPAAAAEEKKEEEKKEEKKEEDTAAVAGLAALFG
stoichiometry N [8]: ~4 L12 per L10

— paper PMC1635324 (Nucleic Acids Research, 2006)
